Assay results as given in patent US12605458B2, “Antibody-drug conjugate having acidic self-stabilization junction” (priority 2017, dated 2026).

Assays:
[1] = SEC-HPLC detection of degree of aggregation; type: physicochemical; conditions: 280 nm
Experimental: ADC samples obtained via conjugation were centrifuged at 14,000 rpm for five minutes and the supernatant was taken for analysis. Instrument: Waters e2695 (2489UV/Vis) Chromatography column: TSKgel G3000SWXL (7.8×300 mm, 5 μm) Mobile phase: A: 50 mM PB, 300 mM NaCl, 200 mM Arg, 5% IPA, pH 6.5 Mobile Phase A was eluted isocratically for 30 minutes; flow rate: 0.714 ml/min, column temperature: 25° C., detection wavelength: 280 nm.

[2] = Plasma stability in vitro (DAR by RP-HPLC after incubation in human plasma); type: in vitro ADME; conditions: 37° C.
Experimental: A fixed amount of ADC sample was added to human plasma for which human IgG had already been removed, with each ADC tube prepared in triplicate; next, incubation in a 37° C. water bath was performed for 0 hours and 72 hours, after which the ADC sample was removed and 100 μl of Protein A (MabSelect SuRe™ LX Lot: #10221479GE, washed with PBS) was added to each tube; adsorption was then allowed to proceed under agitation on a vertical mixer for two hours, followed by washing and elution to obtain incubated ADC; the plasma stability of each incubated ADC sample was then determined via RP-HPLC.

[3] = Hydrophobic interaction chromatography (HIC) assay; type: physicochemical; conditions: eight drug units per antibody, FIG. 4
Experimental: ADC analysis was performed using hydrophobic interaction chromatography (HIC). Elution was performed using 0 to 100% Mobile Phase B (MPB), where Mobile Phase A (MPA) consisted of 1.5 M ammonium sulfate and 0.025 M sodium phosphate, and MPB consisted of 0.025 M sodium phosphate and 25% isopropanol. The sample loading volume was approximately 20 μg, and gradient elution was completed in 15 minutes. 280 nm UV was used for detection, and the stronger the […] sample, the later the peak produced.
Following complete reduction of IgG1 antibody to 8 thiols per antibody according to General Procedure A, corresponding antibody-drug conjugates were prepared via non-specific coupling. ADCs with acidic stabilization junctions and conventional junctions ADC (i.e., MC-VC-PAB-MMAE) with eight drug units per antibody were further separated and purified via hydrophobic interaction chromatography and hydrophobic interaction chromatography (HIC) was used to perform an ADC analysis according to General Procedure C. ADCs with greater hydrophobicity, or larger drug/molecule ratios eluted at later retention times.

MC-VC-PAB-MMAE
Aggregation Rate [1]: 32.46% | Monomer Ratio [1]: 67.51% | 0 h DAR ([2]; human plasma with human IgG removed, 0 hours, RP-HPLC): 7.2 | 72 h DAR ([2]; human plasma with human IgG removed, 72 hours, RP-HPLC): 2.3 | drug loss / change in DAR during plasma incubation (in words) ([2]; human plasma, 72 hours): very significant reduction in DAR | HIC retention time (hydrophobicity, in words) [3]: longest retention time
